Data as given in patent US20090099029A1, “Methods and substrates for conducting assays” (Invitrogen Corporation, priority 2005, published 2009).

System: kinases of Table 6 on Myelin Basic Protein (MBP)
Assay: Kinase assay using MBP substrate, ProQ Diamond stain (Table 6)
Type: biochemical
Settings: kinase printed on MBP-coated slide; 20 uM ATP, 30° C.; ProQ Diamond Microarray Stain; graded Strong/Weak/Negative
Procedure, shortened: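 Reactions ran at 30° C. with 20 uM ATP, 4 mM MgCl2 and 5% DMSO in HEPES pH 7.5, inhibitor added or omitted. Kinases had been arrayed onto slide-bound dephosphorylated bovine MBP; phospho-signal read after ProQ Diamond staining.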

Molecule | MBP Kinase Activity
PAK1 (protein, left off: a dimerising Fc or GST) MSNNGLDIQDKPPAPPMRNTSTMIGAGSKDAGTLNHGSKPLPPNPEEKKKKDRFYRSILPGDKTNKKKEKERPEISLPSDFEHTIHVGFDAVTGEFTGMPEQWARLLQTSNITKSEQKKNPQAVLDVLEFYNSKKTSNSQKYMSFTDKSAEDYNSSNALNVKAVSETPAVPPVSEDEDDDDDDATPPPVIAPRPEHTKSVYTRSVIEPLPVTPTRDVATSPISPTENNTTPPDALTRNTEKQKKKPKMSDEEILEKLRSIVSVGDPKKKYTRFEKIGQGASGTVYTAMDVATGQEVAIKQMNLQQQPKKELIINEILVMRENKNPNIVNYLDSYLVGDELWVVMEYLAGGSLTDVVTETCMDEGQIAAVCRECLQALEFLHSNQVIHRDIKSDNILLGMDGSVKLTDFGFCAQITPEQSKRSTMVGTPYWMAPEVVTRKAYGPKVDIWSLGIMAIEMIEGEPPYLNENPLRALYLIATNGTPELQNPEKLSAIFRDFLNRCLEMDVEKRGSAKELLQHQFLKIAKPLSSLTPLIAAAKEATKNNH | Negative
NEK3 (protein, left off: a dimerising Fc or GST) MDDYMVLRMIGEGSFGRALLVQHESSNQMFAMKEIRLPKSFSNTQNSRKEAVLLAKMKHPNIVAFKESFEAEGHLYIVMEYCDGGDLMQKIKQQKGKLFPEDMILNWFTQMCLGVNHIHKKRVLHRDIKSKNIFLTQNGKVKLGDFGSARLLSNPMAFACTYVGTPYYVPPEIWENLPYNNKSDIWSLGCILYELCTLKHPFQANSWKNLILKVCQGCISPLPSHYSYELQFLVKQMFKRNPSHRPSATTLLSRGIVARLVQKCLPPEIIMEYGEEVLEEIKNSKHNTPRKKTNPSRIRIALGNEASTVQEEEQDRKGSHTDLESINENLVESALRRVNREEKGNKSVHLRKASSPNLHRRQWEKNVPNTALTALENASILTSSLTAEDDRGGSVIKYSKNTTRKQWLKETPDTLLNILKNADLSLAFQTYTIYRPGSEGFLKGPLSEETEASDSVDGGHDSVILDPERLEPGLDEEDTDFEEEDDNPDWVSELKKRAGWQGLCDR | Negative
PAK3 (protein, left off: small tags and cut ends) MSDGLDNEEKPPAPPLRMNSNNRDSSALNHSSKPLPMAPEEKNKKARLRSIFPGGGDKTNKKKEKERPEISLPSDFEHTIHVGFDAVTGEFTGIPEQWARLLQTSNITKLEQKKNPQAVLDVLKFYDSKETVNNQKYMSFTSGDKSAHGYIAAHPSSTKTASEPPLAPPVSEEEDEEEEEEEDENEPPPVIAPRPEHTKSIYTRSVVESIASPAVPNKEVTPPSAENANSSTLYRNTDRQRKKSKMTDEEILEKLRSIVSVGDPKKKYTRFEKIGQGASGTVYTALDIATGQEVAIKQMNLQQQPKKELIINEILVMRENKNPNIVNYLDSYLVGDELWVVMEYLAGGSLTDVVTETCMDEGQIAAVCRECLQALDFLHSNQVIHRDIKSDNILLGMDGSVKLTDFGFCAQITPEQSKRSTMVGTPYWMAPEVVTRKAYGPKVDIWSLGIMAIEMVEGEPPYLNENPLRALYLIATNGTPELQNPERLSAVFRDFLNRCLEMDVDRRGSAKELLQHPFLKLAKPLSSLTPLIIAAKEAIKNSSR | Weak
